Source: patent publication US20130196383A1, “Method of Producing Dicer” (published 2013)

How the values were obtained:
[1] = biological target: T1, hDcr-C, C-terminal fragment of human Dicer (1235-1922), bacterially expressed (human, UniProt Q9UPY3 1235-1922); assay: size-exclusion chromatography after incubation without RNA
T1 construct: Expressed in E. coli from the pHMGWA-His6-MBP destination vector via pENTR/TEV/D-TOPO
T1 sequence: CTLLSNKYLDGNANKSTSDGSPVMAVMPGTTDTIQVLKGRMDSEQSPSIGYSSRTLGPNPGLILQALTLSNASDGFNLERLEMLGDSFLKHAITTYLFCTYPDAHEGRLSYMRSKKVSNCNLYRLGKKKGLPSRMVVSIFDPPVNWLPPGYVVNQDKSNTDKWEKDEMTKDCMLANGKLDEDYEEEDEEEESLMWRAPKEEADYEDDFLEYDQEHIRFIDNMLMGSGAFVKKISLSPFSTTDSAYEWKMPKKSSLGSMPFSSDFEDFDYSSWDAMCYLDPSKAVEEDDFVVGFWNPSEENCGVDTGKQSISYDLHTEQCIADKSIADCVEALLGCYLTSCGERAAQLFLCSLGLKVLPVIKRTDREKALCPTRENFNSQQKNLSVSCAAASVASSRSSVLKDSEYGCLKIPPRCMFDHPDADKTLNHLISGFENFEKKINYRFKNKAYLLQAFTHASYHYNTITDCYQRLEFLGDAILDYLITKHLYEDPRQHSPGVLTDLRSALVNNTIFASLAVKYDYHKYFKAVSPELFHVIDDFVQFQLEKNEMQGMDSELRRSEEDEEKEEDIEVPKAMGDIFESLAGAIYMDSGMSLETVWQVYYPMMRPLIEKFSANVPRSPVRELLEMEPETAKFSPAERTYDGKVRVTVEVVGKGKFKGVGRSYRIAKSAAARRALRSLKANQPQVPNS
Procedure: To assess the role of the PAZ domain in determining Dicer cleavage product length, an attempt was made to express the PAZ domain alone in E. coli. Although this was unsuccessful, a construct including both the PAZ domain and the adjacent DUF283 region yielded soluble protein (hereafter the tandem construct named DP, FIG. 2A). […] To test for a direct protein-protein interaction, hDcr-C and DP polypeptides were incubated together in the absence of RNA and then analyzed by size exclusion chromatography.
DP forms a stable complex with hDcr-C. A pre-incubated mixture of the hDcr-C fragment with 3-fold excess of DP was analyzed with a Superdex 200 size-exclusion column (top panel, elution profile).

[2] = biological target: T2, hDcr-CΔRBD, hDcr-C lacking the C-terminal dsRBD (1235-1844), bacterially expressed (human, UniProt Q9UPY3 1235-1844); assay: complex formation; method not detailed
T2 construct: also called hDcr-CARBD
T2 sequence: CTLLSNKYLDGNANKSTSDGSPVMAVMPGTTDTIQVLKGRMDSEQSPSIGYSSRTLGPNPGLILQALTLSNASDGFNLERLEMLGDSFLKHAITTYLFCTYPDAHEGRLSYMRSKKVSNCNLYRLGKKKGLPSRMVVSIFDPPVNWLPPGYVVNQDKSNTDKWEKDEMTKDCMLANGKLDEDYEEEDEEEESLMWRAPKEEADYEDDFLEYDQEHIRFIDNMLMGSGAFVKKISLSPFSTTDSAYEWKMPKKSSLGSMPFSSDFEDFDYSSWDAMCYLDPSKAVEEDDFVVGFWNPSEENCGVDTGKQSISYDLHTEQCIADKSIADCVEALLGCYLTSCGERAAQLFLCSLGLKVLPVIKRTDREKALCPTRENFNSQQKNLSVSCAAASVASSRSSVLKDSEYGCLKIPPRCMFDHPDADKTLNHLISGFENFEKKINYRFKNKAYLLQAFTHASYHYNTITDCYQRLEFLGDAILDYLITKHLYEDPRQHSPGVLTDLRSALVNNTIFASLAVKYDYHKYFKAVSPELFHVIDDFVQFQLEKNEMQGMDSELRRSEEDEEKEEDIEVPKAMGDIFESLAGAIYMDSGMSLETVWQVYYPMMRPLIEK

B1: DP, tandem DUF283-PAZ domains of human Dicer (605-1068), bacterially expressed (other)
chain: MDDDDVFPPYVLRPDDGGPRVTINTAIGHINRYCARLPSDPFTHLAPKCRTRELPDGTFYSTLYLPINSPLRASIVGPPMSCVRLAERVVALICCEKLHKIGELDDHLMPVGKETVKYEEELDLHDEEETSVPGRPGSTKRRQCYPKAIPECLRDSYPRPDQPCYLYVIGMVLTTPLPDELNFRRRKLYPPEDTTRCFGILTAKPIPQIPHFPVYTRSGEVTISIELKKSGFMLSLQMLELITRLHQYIFSHILRLEKPALEFKPTDADSAYCVLPLNVVNDSSTLDIDFKFMEDIEKSEARIGIPSTKYTKETPFVFKLEDYQDAVIIPRYRNFDQPHRFYVADVYTDLTPLSKFPSPEYETFAEYYKTKYNLDLTNLNQPLLDVDHTSSRLNLLTPRHLNQKGKALPLSSAEKRKAKWESLQNKQILVPELCAIHPIPASLWRKAVCLPSILYRLHCLLTAE
notes: Expressed in E. coli from the pHMGWA-His6-MBP vector; also called middle domains of hDcr
binding result [1]: binds
binding result [2]: binds
